From CN117866903A

Biological target: T1, 生物素化的IL-17A of the IL-17A[Biotinylated] : IL-17RA Inhibitor Screening ELISA Kit (ACROBiosystems, EP-139) (UniProt Q16552)
T1 sequence (biotinylated, looked up): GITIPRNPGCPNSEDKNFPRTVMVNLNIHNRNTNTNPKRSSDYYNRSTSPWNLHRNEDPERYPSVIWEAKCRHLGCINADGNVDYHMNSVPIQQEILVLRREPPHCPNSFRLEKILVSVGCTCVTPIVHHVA
Test: competition ELISA kit (ACROBiosystems EP-139): IL-17RA coated, biotinylated IL-17A, culture supernatant diluted 5-fold

B1: IL-17Nb secreted by C3-H10-MSC (1-C3-3-H10: Fc融合蛋白, VHH-(GGGGS)3-VHH-IgG4 Fc) (Fc fusion)
chain: DVQLVESGGGLVEPGESLRLSCAAPGEDLGYYAIAWFRQAPGKEREVVSCVTSSGSSTNYLSSVKDRFTISIDNAKNTVYLQMNSLKPEDTAVYYCASTILLCSDYISAFGTWGQGTQVTVASGGGGSGGGGSGGGGSEVQLVESGGGLVQPGGSLRLSCAASGFSIHIYAMGWYRQAPGKQRELVATITRGGVTNNADSVKGRFTISRDNAKNTAYLQMNSLKPEDTAVYYCNAGGTNGGYWGQGTQVTVSSAPEFLGGPSVFLFPPKPKDTLMISRTPEVTCVVVDVSQEDPEVQFNWYVDGVEVHNAKTKPREEQFNSTYRVVSVLTVLHQDWLNGKEYKCKVSNKGLPSSIEKTISKAKGQPREPQVYTLPPSQEEMTKNQVSLTCLVKGFYPSDIAVEWESNGQPENNYKTTPPVLDSDGSFFLYSRLTVDKSRWQEGNVFSCSVMHEALHNHYTQKSLSLSLGK
  结合抑制率: 58%
